Entries after “also recorded” stand apart in the source; their conditions may differ.
What was measured:
splenic CD3^+ T cells = experiment: Splenic T cell counts by FACS after experimental stroke; type: in vivo, mice; details: hrDNase 1000 U 1 hour after surgery vs vehicle; experimental stroke; normalized to sham
Description: (§1) Mice were anaesthetized with isoflurane delivered in a mixture of 30% O2 and 70% N2O. An incision was made between the ear and the eye in order to expose the temporal bone. Mice were placed in supine position, and a laser Doppler probe was affixed to the skull above the middle cerebral artery (MCA) territory. The common carotid artery and left external carotid artery were exposed via midline incision and further isolated and ligated. A 2-mm silicon-coated filament (Doccol) was inserted into the internal carotid artery, advanced gently to the MCA until resistance was felt, and occlusion was confirmed by a corresponding decrease in blood flow (i.e., a decrease in the laser Doppler flow signal by 80%. After 60 minutes of occlusion, the animals were re-anesthetized, and the filament was removed. After recovery, the mice were kept in their home cage with ad libitum access to water and food. Sham-operated mice received the same surgical procedure, but the filament was […] in lieu of being advanced to the MCA. Body temperature was maintained at 37° C. throughout surgery in all mice via feedback-controlled heating pad. The overall mortality rate of animals subjected to MCA occlusion was approximately 20%. All animals in the sham group survived the procedure. Exclusion criteria: 1. Insufficient MCA occlusion (a reduction in blood flow to […] of the baseline value). 2. Death during the surgery. 3. Lack of brain ischemia as quantified post-mortem by histological analysis.
Anti-IL1β: Mice received two injections of antagonizing anti-IL-1β in sterile saline (clone: B122, InVivoMab, BioXcell, US), 1 hour prior to and 1 hour after surgery. Anti-IL-1β or the corresponding IgG control (Armenian hamster IgG, InVivoMab, BioXcell, US) was injected i.p. at a dose of 4 mg kg^−1 body weight in a final volume of 200 μl.
Anti-FasL: Mice received two injections of antagonizing anti-FasL in sterile saline (clone: MFL3, InVivoMab, BioXcell, US), 1 hour prior to and 1 hour after surgery. […]

splenic B cells = experiment: Splenic B cell counts by FACS after experimental stroke; type: in vivo, mice; details: hrDNase 1000 U vs control; 18 h after stroke; normalized to sham
Description: (§2) Mice were anaesthetized with isoflurane delivered in a mixture of 30% O2 and 70% N2O. An incision was made between the ear and the eye in order to expose the temporal bone. Mice were placed in supine position, and a laser Doppler probe was affixed to the skull above the middle cerebral artery (MCA) territory. The common carotid artery and left external carotid artery were exposed via midline incision and further isolated and ligated. […] Lack of brain ischemia as quantified post-mortem by histological analysis. […]
(§3) The anti-mouse antibodies listed below (see Table 1) were used for surface marker staining of CD45^+ leukocytes, CD45^+CD11b^+ monocytes (+FasL^+ expression), CD3^+ T cells, CD3^+CD4^+ Thelper cells, CD3^+CD8^+ Tcytotox cells and CD19^+ B cells (for representative gating strategy, see FIG. 10A). […] Flow cytometric data was acquired using a BD FACSverse flow cytometer (BD Biosciences) and analyzed using FlowJo software (Treestar).

FasL on BMDMs = experiment: BMDMs stimulated with post-stroke serum (±hrDNase), FasL expression by FACS; type: cell-based, mice; details: BMDMs stimulated 10 minutes with post-stroke serum ±hrDNase; FasL 10 and 60 minutes after
Description: Control-treated BMDMs received only FBS-containing culture media. […] Stimulation by secreted factors (left), and 2. Cell-cell contact (right).

cf-dsDNA = experiment: Cell-free dsDNA quantification in serum/plasma after stroke; type: in vivo, mice; details: hrDNase 1000 U vs vehicle, 6 h after stroke or sham surgery
Description: as §2
Cell-free nucleic acids (RNA, single strand (ss) DNA and double strand (ds) DNA) levels in the plasma of mice and human patients was assessed with a Qubit 2.0 fluorometer (Invitrogen) using specific fluorescent dyes which bind either ssDNA (ssDNA Assay Kit, Thermo Fisher Scientific) or dsDNA (HS dsDNA Assay kit, Thermo Fisher Scientific). […]

[1] = system: FasL on CD11b^+ monocytes; experiment: FasL expression on splenic CD11b+ monocytes by FACS after stroke; type: in vivo, mice; details: hrDNase 1000 U after stroke vs control
Description: as §2, §3

[2] = system: caspase-1 activity in splenic CD11b^+ monocytes; experiment: FAM FLICA flow cytometry of caspase-1 activity (inflammasome activation) in splenic monocytes after stroke; type: in vivo, mice; details: hrDNase 1000 U 1 hour after surgery vs vehicle; experimental stroke; splenic monocytes
Description: as §1
Human recombinant DNase (hrDNase): 1000 U of human recombinant DNase (Roche, Switzerland) dissolved in incubation 1× buffer (40 mM Tris-HCl, 10 mM NaCl, 6 mM MgCl2, 1 mM CaCl2, pH 7.9, diluted in PBS, Roche) was injected i.v. in the tail vein 1 hour after surgery in a final volume of 100 μl. The control group was administered vehicle injections at the same volume, route, and timing as experimental animals.
Caspase-8 inhibitor (Z-IETD-FMK) & Caspase-9 inhibitor (Z-LEHD-FMK): The apoptosis inhibitors Z-IETD-FMK and Z-LEHD-FMK (R&D systems, US) in DMSO dissolved in PBS and injected i.p. 30 minutes after surgery. Z-LEHD-FMK was injected at a dose of […] body weight at a final volume of 200 μl. Z-IETD-FMK was injected at a dose of 0.8 mg kg^−1 body weight at a final volume of 100 μl. The control groups were administered vehicle injections at the same volume, route, and timing as experimental animals.
To detect the active forms of caspase-1 in blood, spleen, and bone marrow samples, cell suspensions were stained with the fluorescent inhibitor probe FAM-YVAD-FMK (FAM FLICA, BioRad, Germany) for 30 minutes at 37° C. according to the manufacturer's instructions. After washing, the cells were stained for CD45^+CD3^+ T cells and CD45^+Cd11b^+ monocytes. The flow cytometry data was acquired on a BD FACSVerse (for representative gating strategy, see FIG. 10B).

IL-1β = IL-1β concentration in post-stroke serum treated ex vivo ±hrDNase; set-up: species or system mice; details: ex vivo treatment of post-stroke mouse serum ±hrDNase
Procedure: Total IL-1β and caspase-1 levels from patient plasma samples (diluted 1:10 in sterile PBS) were obtained using commercial assay kits according to the manufacturers instructions (Quantikine ELISA human IL-1β, Quantikine ELISA human caspase-1 R&D systems). Total IL-1β and IL-18 levels from murine plasma samples were measured using the Duoset ELISA IL-1β and the Duoset ELISA IL-18 kit according to the manufacturer's instructions (R&D systems).

B1: hrDNase: Human recombinant DNase (Roche, Switzerland), DNA-degrading enzyme (protein, UniProt P24855 23-282, looked up)
Deoxyribonuclease-1: LKIAAFNIQTFGETKMSNATLVSYIVQILSRYDIALVQEVRDSHLTAVGKLLDNLNQDAPDTYHYVVSEPLGRNSYKERYLFVYRPDQVSAVDSYYYDDGCEPCGNDTFNREPAIVRFFSRFTEVREFAIVPLHAAPGDAVAEIDALYDVYLDVQEKWGLEDVMLMGDFNAGCSYVRPSQWSSIRLWTSPTFQWLIPDSADTTATPTHCAYDRIVVAGMLLRGAVVPDSALPFNFQAAYGLSDQLAQAISDHYPVEVMLK
splenic T cell counts / T cell survival (splenic CD3^+ T cells): improved T cell survival after experimental stroke; also recorded: increased splenic T cell counts | splenic B cell survival (splenic B cells): improved B cell survival after experimental stroke | FasL upregulation on serum-stimulated monocytes (BMDMs) (FasL on BMDMs): completely prevented the FasL upregulation on serum-stimulated monocytes | serum dsDNA (cf-dsDNA) concentration (cf-dsDNA): reduction of cf-dsDNA blood concentrations; also recorded: decrease cf-dsDNA concentration in plasma; also recorded: decrease of serum dsDNA concentration in mice receiving hrDNase treatment after stroke to levels of sham-operated mice | serum dsDNA (cf-dsDNA) concentration (cf-dsDNA; listed as human recombinant DNAse): efficient degradation of cf-dsDNA | FasL expression on monocytes / FasL+ myeloid cell population [1]: prevented the expansion of FasL+myeloid cell population; also recorded: reduced FasL expression on monocytes | monocyte inflammasome activation (caspase-1 probe FAM-FLICA) [2]: substantially reduced inflammasome activation in splenic monocytes; also recorded: decrease cf-dsDNA concentration in plasma and inflammasome activation in monocytes; also recorded: significantly reduced monocyte inflammasome activation | IL-1β concentration of post-stroke serum (IL-1β): IL-1β concentrations did not differ between the two stroke serum groups | IL-1β concentration of post-stroke serum (IL-1β; listed as hrDNAse): did not affect the serum concentration of IL-1β
